Experimental data: US8163700B2, “Inhibitors of myelin-associated glycoprotein (MAG) activity for regulating neural growth and regeneration” (Research Foundation of City University of New York, priority 2002, dated 2012)

T1: NgR (Homo sapiens, UniProt Q9BZR6)
T1 sequence (Q9BZR6 27-447): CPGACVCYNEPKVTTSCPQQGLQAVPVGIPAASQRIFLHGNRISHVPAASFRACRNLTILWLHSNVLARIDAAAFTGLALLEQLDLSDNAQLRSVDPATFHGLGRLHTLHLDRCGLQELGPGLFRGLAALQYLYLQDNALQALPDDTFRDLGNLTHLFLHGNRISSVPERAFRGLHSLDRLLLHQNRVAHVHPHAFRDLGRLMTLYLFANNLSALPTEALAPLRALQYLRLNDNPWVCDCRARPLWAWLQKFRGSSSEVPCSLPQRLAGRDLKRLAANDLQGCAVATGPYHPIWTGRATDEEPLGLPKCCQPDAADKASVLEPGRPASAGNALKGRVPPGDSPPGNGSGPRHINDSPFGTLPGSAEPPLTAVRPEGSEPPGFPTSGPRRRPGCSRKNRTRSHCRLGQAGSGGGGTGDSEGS

T2: Nogo (Homo sapiens, UniProt Q9NQC3, S458P)
T2 sequence (Q9NQC3 1-1192 S458P): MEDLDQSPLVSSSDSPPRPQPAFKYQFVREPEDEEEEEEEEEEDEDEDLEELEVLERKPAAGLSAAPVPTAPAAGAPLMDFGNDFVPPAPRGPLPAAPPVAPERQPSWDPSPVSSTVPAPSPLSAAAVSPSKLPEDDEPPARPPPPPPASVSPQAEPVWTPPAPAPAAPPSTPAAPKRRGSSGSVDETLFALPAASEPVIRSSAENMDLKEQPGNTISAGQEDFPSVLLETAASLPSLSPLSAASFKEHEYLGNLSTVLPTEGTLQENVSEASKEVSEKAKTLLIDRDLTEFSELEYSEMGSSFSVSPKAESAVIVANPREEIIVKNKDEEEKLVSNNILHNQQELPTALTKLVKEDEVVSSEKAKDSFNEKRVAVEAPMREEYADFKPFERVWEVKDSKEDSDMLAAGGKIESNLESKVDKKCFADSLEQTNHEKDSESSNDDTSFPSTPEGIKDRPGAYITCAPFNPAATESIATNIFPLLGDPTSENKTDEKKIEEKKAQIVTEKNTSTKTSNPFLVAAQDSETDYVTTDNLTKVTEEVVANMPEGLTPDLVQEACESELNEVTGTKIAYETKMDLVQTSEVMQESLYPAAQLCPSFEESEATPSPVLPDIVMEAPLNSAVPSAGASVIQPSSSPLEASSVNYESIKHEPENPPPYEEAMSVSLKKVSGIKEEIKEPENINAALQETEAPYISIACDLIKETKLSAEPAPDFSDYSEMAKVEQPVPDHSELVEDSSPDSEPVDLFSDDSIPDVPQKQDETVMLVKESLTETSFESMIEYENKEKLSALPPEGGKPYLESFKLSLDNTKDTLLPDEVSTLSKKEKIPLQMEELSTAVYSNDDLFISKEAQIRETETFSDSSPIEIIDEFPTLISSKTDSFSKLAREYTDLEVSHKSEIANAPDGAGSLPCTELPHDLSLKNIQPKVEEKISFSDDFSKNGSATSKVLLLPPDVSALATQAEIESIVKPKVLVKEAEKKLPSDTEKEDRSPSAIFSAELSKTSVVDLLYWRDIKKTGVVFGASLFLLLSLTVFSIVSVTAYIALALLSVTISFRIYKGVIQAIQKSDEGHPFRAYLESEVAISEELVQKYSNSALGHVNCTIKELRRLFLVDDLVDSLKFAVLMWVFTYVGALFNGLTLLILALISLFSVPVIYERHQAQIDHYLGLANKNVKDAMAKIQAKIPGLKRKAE

B1: MAG: full-length MAG containing all five Ig-like domains, expressed on CHO cells (protein, UniProt P20917 1-627, looked up)
chain: MIFLATLPLFWIMISASRGGHWGAWMPSTISAFEGTCVSIPCRFDFPDELRPAVVHGVWYFNSPYPKNYPPVVFKSRTQVVHESFQGRSRLLGDLGLRNCTLLLSTLSPELGGKYYFRGDLGGYNQYTFSEHSVLDIVNTPNIVVPPEVVAGTEVEVSCMVPDNCPELRPELSWLGHEGLGEPTVLGRLREDEGTWVQVSLLHFVPTREANGHRLGCQAAFPNTTLQFEGYASLDVKYPPVIVEMNSSVEAIEGSHVSLLCGADSNPPPLLTWMRDGMVLREAVAKSLYLDLEEVTPGEDGVYACLAENAYGQDNRTVELSVMYAPWKPTVNGTVVAVEGETVSILCSTQSNPDPILTIFKEKQILATVIYESQLQLELPAVTPEDDGEYWCVAENQYGQRATAFNLSVEFAPIILLESHCAAARDTVQCLCVVKSNPEPSVAFELPSRNVTVNETEREFVYSERSGLLLTSILTIRGQAQAPPRVICTSRNLYGTQSLELPFQGAHRLMWAKIGPVGAVVAFAILIAIVCYITQTRRKKNVTESSSFSGGDNPHVLYSPEFRISGAPDKYESEKQRLGSERRLLGLRGESPELDLSYSHSDLGKRPTKDSYTLTEELAEYAEIRVK
modifications: full-length
notes: full-length MAG containing all five Ig-like domains, expressed on CHO cells

Assays:
[1] = target: T1, NgR; conditions: described in the art; cited from earlier work
[2] = target: T2, Nogo; conditions: described in the art; cited from earlier work
[3] = system: cerebellar neurons; test: Neurite outgrowth of cerebellar neurons on CHO cell monolayers expressing MAG or truncated, deleted or chimeric MAG derivatives (FIG. 1); format: cell-based; conditions: cerebellar neurons grown overnight on CHO cells expressing the construct, versus control-transfected CHO cells; GAP-43 staining
Protocol: FIG. 1 Inhibition of neurite outgrowth from cerebellar neurons by truncated MAG or chimeric MAG Cerebellar neurons were isolated (Example 1) and grown overnight on a monolayer of control-transfected CHO cells (clear bar) or a monolayer of CHO cells expressing wild-type MAG or truncated, deleted or chimeric MAG derivatives (grey bars). (See Example 2). Neurons were stained for GAP-43 antigen and neurite length was measured and the average length was calculated for 180-200 neurons (+/−SEM).
Cerebellar neurons were isolated essentially as described in Doherty et al., Nature, 343, pp. 464-66 (1990); Neuron, 5, pp. 209-19 (1990); and Kleitman et al., Culturing Nerve Cells, pp. 337-78, MIT Press, Cambridge, Mass./London, England (G. Banker and K. Goslin, Eds.) (1991). Briefly, for animals up to nine days of age, the cerebellum was removed from two animals, and placed in 5 ml of 0.025% trypsin in PBS, triturated, and incubated for a further 10 minutes (min) at 37° C. […]
Confluent monolayers of control, MAG-, truncated MAG- or chimeric MAG-Sn-expressing CHO cells were established over a 24-hour (h) period in individual chambers of an 8-well tissue culture slide (Lab-Tek). […] The length of the longest neurite for each GAP43-positive neuron was determined using the Biological Detection System image analysis program (Pittsburgh).

Molecule	binding to NgR [1]	inhibition of axonal outgrowth [2]	inhibition of neurite outgrowth by the expressed MAG construct [3]
Nogo-66 amino acid residues 31-55: prior-art peptide of Nogo-66 residues 31-55 (hNogo-A residues 1085-1109 of SEQ ID NO: 9) (EELVQKYSNSALGHVNCTIKELRRL; listed as Homo sapiens)	can bind to NgR	inhibit axonal outgrowth	–
B1	–	–	capable of inhibiting neurite outgrowth
